The values that follow come from the DeepSol protein solubility set.

The data set in a line: soluble on expression in E. coli; label from the status in PepcDB or PDB records.
Take “MKLLKKPAGLKKRKVISKRIKIEKKPSSEDEGSSDEEVPKLDGEGSLDGSEDEDDGTVTVEKGGVKKHKLDLEKLKQSDPEFFKFLQQEDADLLNMEDDGDDDEDDDEDDEDEEEEESDDDEDDEEDDDKTKIKKIRKPKIKSDNSGRLIVDSNVYSYLQQVLVLDDETSTPTNPSDVRMAVDVFVACVARVGADIEAPKYVINEQSIFEAVVRMCFQAMPDILKRLLKAKPEGDKVLFSKTAIKKYQTYVRTYLHAMIVFLNEVQTTEVLIATIKAMTRLVDLYAHFSRMSKLLIKAVVRIWSRKTLECRLPAFVCMNLLVKNYPQHFVPLYKTAYVAFVANSKIVTNETWPLLQFMHRTFAELTILNPEQAYKYAFVYIRQTAVHLRNAMISKGRKDLIFSIYNWQMMQCMYMWVRVIAKAHSVNGAEQIGELVYPLIQVIVGIFKLCNAPTFLPLRLHCCQLLIQLQASCTNYIPILQVSCDCLEELARELKSKPKPVKGAVKLPDIECTLKCSSQFSDLPQWRKVISEHVFRTMMQSAHLLASQAAFPDVVLPINHRISAILETMKNGDHAHLFRGFQTKLKEHSRFVLDVLARKSVDINDEMQVRAVRFDLNNHDSPIKTFYRQWEKVWKMKERSAVENSKKDDKKKKKEEEAAAAKKRKPNETVEDEDDVKPEVSKAKRKRIKIGAAAKKADASVPDQFADMSMWSDED”: the “soluble on expression in E. coli” value was “soluble”.

“MKLPVMSPEHSAQLQAFEAKILSNHAKIEAWFRTQWSVHRPPFYGSVDIRNAGYKISSIDMNLFPGGFNNLNPNFIPLAAVAAQDAVQRACETAKSVLIIPENHTRNTFYLQNVYALGEILRSAGYEVRLGSLNPEVTEPTEFETALGDKILLEPLLRTRDRVHLADGFSPCVVLLNNDLSAGIPDILKGISQTVLPPLHGGWTTRRKTNHFGAYNQVTAEFAKLIGIDEWQINPYFEKIGGLDFQGREGEDALAEAVERVLAKIQAKYDESGITDKPFVIVKADAGTYGMGVMSVKSADEVRGLNRKNRNKMAKVKEGLEVSEVIVQEGIYTYETLNGAVCEPVVYMMDRFVIGGFFRVHEGRGADENLNAGGMVFVPLSNSIPTGNGDNSQEAPEACKRVFEQWDSLGMPRSEKDCDVDNEHNRLYVYGVMARLSLLAASIELEETA”: the “soluble on expression in E. coli” value was “soluble”. On to “MKLRRSMLFVPGSNAAMLSNSFIYKPDSIMFDLEDAVALKEKDSARLLVAHALQHPLYKEIETVVRVNPLDSEFGLLDLNSVVRAGVDVVRMPKTESAQDVLDMDHAITEIEKACGREAGSTKMLAAIESPLGITQANQIAFASKRLIGIALGAEDYVRNLKTERSPEGIELLFARCSILQAARAAGIQAFDTVYSNANNEEGFLKEAALIKQLGFDGKSLINPRQIELLHNLFAPTQKDVEQAKRIIEAAVEAERQGAGVVSLNGKMIDAPIIDRAKLVLERAKSGIREELEHHHHHH”, for which the “soluble on expression in E. coli” value is “soluble”. As to “MKLSDMQLFRGLEEDDISSLLSCLNSVKRNYKKGEVILSEGSIIENIGIVLSGMAMISCNEIWGNTSILGSVAPGSVFAEVYACIPGQPMLVTVSAVEDTSVLFMNVGRVLTTCTNACPFHTNLARNLLTVCAHKSLQLSQRILHTSSKSIRGRLMSYFSECAKHAGSNSFLIPYNRQQLADYLNVDRSTMCNELSKMQKDGMIEYKKNRILLKD”, the “soluble on expression in E. coli” value is on record as “not soluble”. As for “MKLSVYVASAFSKDHKGGNKAGVVFIENSLTTTQKMAIAKQLGYAETAFISESEIADYKFEYFTPKEEVDLCGHATIGSFAILMHLNKLFRNRYTIETNSGVLTITIKDDSIFMEQNNPIFYDVVSPNEFIDCFDMKAIDNKYPIQIVSTGLKDILIPIKSETRLHALQPSFEKIKEISKYYNVVGMHLYTFNDDRIICRNFAPLYDINEEAATGTSNGALACYLHEQHNLQKEVYVFEQGYSLQSPSEILVTLATNSKNEIEKVYVGGKGYYCETKCLNVENME”, the entry is “not soluble”; as for “MKLVLAVIQDADAAALMRALSEQHFEATKLASTGGFLREGNTTLMIGVDDQRLDTLRTLIGQTCRSRTRLVPARGLVSESEGGVAQEPVEVPVGGAVIFVLGVEDFVKV”, “not soluble”; as for “MKLYNLKDHNEQVSFAQAVTQGLGKQQGLFFPHDLPEFSLTEIDEMLNQDFVSRSAKILSAFIGDEIPQQILEERVRAAFAFPAPVAQVESDVGCLELFHGPTLAFKDFGGRFMAQMLTHISGDKPVTILTATSGDTGAAVAHAFYGLENVRVVILYPRGKISPLQEKLFCTLGGNIETVAIDGDFDACQALVKQAFDDEELKTALGLNSANSINISRLLAQICYYFEAVAQLPQGARNQLVISVPSGNFGDLTAGLLAKSLGLPVKRFIAATNVNDTVPRFLHDGKWAPKATQATLSNAMDVSQPNNWPRVEELFRRKIWRLTELGYAAVDDTTTQQTMRELKAKGYISEPHAAVAYRALRDQLNPGEYGLFLGTAHPAKFKESVESILGETLALPEALAERADLPLLSHHLPADFAALRKLMMTRQ”, “not soluble”.

For the sequence “MKLYQHIETLWDYMQLKQDLKPADCLFVMCSNDVRVAEHAAALYHQKLAPLIVFSGGEGRFTDGLFEKSEAETFADIARLAGVPSDAILVETRSTNSGENVRFTEQLLKEKGIQCESIILVQKPFMERRAIATFEKQWQSPYSQVQVSSTAHPFFEYINEDMPLMMVLEALMEDFSRVKSYPEKGFQTKQDIPNQVDSSYQVLLERFGFDLVLEHHHHHH”, the “soluble on expression in E. coli” value is recorded as “not soluble”. As for “MKMKEFLDLLNESRLTVTLTGAGISTPSGIPDFRGPNGIYKKYSQNVFDIDFFYSHPEEFYRFAKEGIFPMLQAKPNLAHVLLAKLEEKGLIEAVITQNIDRLHQRAGSKKVIELHGNVEEYYCVRCEKKYTVEDVIKKLESSDVPLCDDCNSLIRPNIVFFGENLPQDALREAIGLSSRASLMIVLGSSLVVYPAAELPLITVRSGGKLVIVNLGETPFDDIATLKYNMDVVEFARRVMEEGGIS”, the “soluble on expression in E. coli” value is reported as “soluble”. Take “MKMNLSTPFPLGATLDAEGCNFAIYAPANRDILLALFHADGSYETHQLEHEYAGVKHTHISGIHAGQKYGYLIQLNDELHYISDPYARALEGPLHYAPPFDSHKSFDLPKCVVTDTHFDWQNVAKPRIARDEMVLFETHVKGLTQLNPDVEKALRGKYLGLVSQPMLDFYRQQNINTLQLLPIAACMHEPHLLESGKVNYWGYNPYVFMAPDPRYASKDAVNELKTTIRELHRNGIQVILDVVYNHTAEGGTNGPVFNLKALDPNYYLHHGDHYANYTGCGNTVDLSNQAALNLVMDTLRCWVTEYQIDGFRFDLAATLGRRGDEFSKEAAFFKAVAQDPVLREVKLIAEPWDIGPNGYQVGNFPFGWNETNDKLRDITRSFWRGDLGFLKEFATRLMGSRDLYSAANWPYKLTVNYITYHDGFTLQDLVSYKHKHNEANGEQNRDGHGDNRSDNYGFEGDTDSIVIRATRERQKRNFMASLLFAFGIPHILTADVLSHTQKGNNNAYCQDNDISWLNWENNETKQDFREWLAGMVAARQTYMVPFIRAFSGENRNNNRIAWRRVDGKPMEMDDWNRLSSVALHIGIGSDGPEMLYLINQTNAPARFVLPKDRQQDWRLICDTNMRHAQHGHAEGEVLQLPVSMSILHYQPKKKSA”: the “soluble on expression in E. coli” value is on record as “soluble”. “MKNIRNFSIIAHIDHGKSTLSDRIIQICGGLSDREMEAQVLDSMDLERERGITIKAQSVTLDYKASDGETYQLNFIDTPGHVDFSYEVSRSLAACEGALLVVDAGQGVEAQTLANCYTAMEMDLEVVPVLNKIDLPAADPERVAEEIEDIVGIDATDAVRCSAKTGVGVQDVLERLVRDIPPPEGDPEGPLQALIIDSWFDNYLGVVSLIRIKNGTLRKGDKVKVMSTGQTYNADRLGIFTPKQVDRTELKCGEVGWLVCAIKDIHGAPVGDTLTLARNPAEKALPGFKKVKPQVYAGLFPVSSDDYEAFRDALGKLSLNDASLFYEPESSSALGFGFRCGFLGLLHMEIIQERLEREYDLDLITTAPTVVYEVETTSREVIYVDSPSKLPAVNNIYELREPIAECHMLLPQAYLGNVITLCVEKRGVQTNMVYHGNQVALTYEIPMAEVVLDFFDRLKSTSRGYASLDYNFKRFQASDMVRVDVLINGERVDALALITHRDNSQNRGRELVEKMKDLIPRQQFDIAIQAAIGTHIIARSTVKQLRKNVLAKCYGGDISRKKKLLQKQKEGKKRMKQIGNVELPQEAFLAILHVGKDNK”: the “soluble on expression in E. coli” value is given as “soluble”. For the sequence “MKNKLLVLSLGALCVSQIWESNRASAVVSGEKNPYVSESLKLTNNKNKSRTVEEYKKSLDDLIWSFPNLDNERFDNPEYKEAMKKYQQRFMAEDEALKKFFSEEKKIKNGNTDNLDYLGLSHERYESVFNTLKKQSEEFLKEIEDIKKDNPELKDFNEEEQLKCDLELNKLENQILMLGKTFYQNYRDDVESLYSKLDLIMGYKDEERANKKAVNKRMLENKKEDLETIIDEFFSDIDKTRPNNIPVLEDEKQEEKNHKNMAQLKSDTEAAKSDESKRSKRSKRSLNTQNHKPASQEVSEQQKAEYDKRAEERKARFLDNQKIKKTPVVSLEYDFEHKQRIDNENDKKLVVSAPTKKPTSPTTYTETTTQVPMPTVERQTQQQIIYNAPKQLAGLNGESHDFTTTHQSPTTSNHTHNNVVEFEETSALPGRKSGSLVGISQIDSSHLTEREKRVIKREHVREAQKLVDNYKDTHSYKDRINAQQKVNTLSEGHQKRFNKQINKVYNGK”, the “soluble on expression in E. coli” value is reported as “not soluble”. “MKNSDLYNGTLRTSFVPGSTLEAGIIFRATIPNGEFYEKEAGLSYYWLYILNGTVSFQRVENGEISNENKKYFPYGTSSAYEAKILLDDGDIYCYLNNRLVFHYTDENPLQGHQYGLKSEGSNLIVTEFATSSLEAPQHNEYLIFGHSYTDFWKTYKQDFHKYQDIYNIGIGGAITSDWCSEGYQKEVIAYQPKYGIYWNGINDINRNIAPKTIGDNVRRMAMEIKAAVPGFHLVLIGVCRCPIDSGRRSDIASTNNYYKQIASDLDYVTYIDTELMYCDSNGNEIANYFTDGLHPTHDAYIMCANAIMNTIK”: the “soluble on expression in E. coli” value was “soluble”. Turning to “MKPEKIDCNFKLIYCEDEESKGGRLEFSLEEVLAISRNVYKRVRTNRKHHHHHH”, the “soluble on expression in E. coli” value is reported as “soluble”. As for “MKPIDRFSYLKNNRVSQDTSSLVQCYLPIIGQEALSLYLYTISFWDNGRKEYLFSSILNHLNFGMDRLIKSLKILSAFNLLTLYQKGDVYQLALHAPLSSQDFLGHPVYRRLLEKKIGDVAVEDLKVESADGEEIPVSLNQVFPELAELGSQEDLGLKKKVANDFDLEHFRQLMARDGLRFADEQSDVLNLFAIAEEKKWTWFETYQLAKSTAVSQVISTKRMREKIAQKPVSSDFSLKEATIIKEAKSKTALQFLAEIKQTRKGTITQTERELLQQMAGLGLLDEVINIILLLTFNKVDSANINEKYAMKVANDYAYQKIHSAEEAVLRIRDRGQKAKTQKQNQTAPEKTNVPKWSNPEYKNETSEETRLELERKKQELLARLEKG”, the “soluble on expression in E. coli” value is “soluble”.

For “MKPIQLPLSVRLRDDATFANYYPGANAAALGYVERLCEAEAGWAESLIYLWGHDGVGRSHLLQAACLRFEQFEERTIYLPMADLVQYGPEIFDDLEQCELVCIDDLDVLVGKREWEEGLFHLFNRLRDTGRRLLLAASKSPRELQVKLPDLKSRLTMALIFQLHGLSDEDKLRALQLRASRRGLHLTDEVGRFILNRGSRSMNSLFDLLEQLDRASLQAQRKLTIPFLKETLGWLEHHHHHH”, the “soluble on expression in E. coli” value is recorded as “soluble”. In the case of “MKPPSSIQTSEFDSSDEEPIEDEQTPIHISWLSLSRVNCSQFLGLCALPGCKFKDVRRNVQKDTEELKSCGIQDIFVFCTRGELSKYRVPNLLDLYQQCGIITHHHPIADGGTPDIASCCEIMEELTTCLKNYRKTLIHSYGGLGRSCLVAACLLLYLSDTISPEQAIDSLRDLRGSGAIQTIKQYNYLHEFRDKLAAHLSSRDSQSRSVSR”, the “soluble on expression in E. coli” value is recorded as “soluble”.
